Results: PMC11754618 (2025)
Substitutions are numbered along the chain they refer to.

T1: His6-Hs.USP18 (16-372) (human, UniProt Q9UMW8 16-372)
T1 chain: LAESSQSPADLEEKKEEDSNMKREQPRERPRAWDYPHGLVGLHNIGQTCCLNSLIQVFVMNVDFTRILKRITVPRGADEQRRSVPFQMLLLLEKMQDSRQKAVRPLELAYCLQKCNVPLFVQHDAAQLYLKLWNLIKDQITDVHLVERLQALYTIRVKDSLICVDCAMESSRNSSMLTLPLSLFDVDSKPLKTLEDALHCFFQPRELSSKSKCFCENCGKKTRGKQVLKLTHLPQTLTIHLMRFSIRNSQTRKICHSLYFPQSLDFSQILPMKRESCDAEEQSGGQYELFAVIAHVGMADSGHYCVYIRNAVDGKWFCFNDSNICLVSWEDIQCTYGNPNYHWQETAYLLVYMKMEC

T2: His6-Mm.USP18 (46-368) (mouse, UniProt Q9WTV6 46-368)
T2 chain: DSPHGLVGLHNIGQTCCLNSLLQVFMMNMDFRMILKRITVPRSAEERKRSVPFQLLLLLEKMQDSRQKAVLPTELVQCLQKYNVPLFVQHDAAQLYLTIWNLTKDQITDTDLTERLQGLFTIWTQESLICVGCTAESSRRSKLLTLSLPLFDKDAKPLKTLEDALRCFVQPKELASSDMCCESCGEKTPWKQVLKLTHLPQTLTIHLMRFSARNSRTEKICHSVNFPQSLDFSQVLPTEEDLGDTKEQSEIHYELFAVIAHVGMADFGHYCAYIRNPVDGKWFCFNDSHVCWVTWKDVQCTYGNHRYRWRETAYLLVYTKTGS

B1: Ac-mISG15CTD[R153Phe(guan)]-OH (domain or fragment)
chain: LSILVRNERGHSNIYEVFLTQTVDTLKKKVSQREQVHEDQFWLSFEGRPMEDKELLGEYGLKPQSTVIKHLRLFG
modifications: N-terminal acetyl; Phe(guan) (guanidino-phenylalanine) at 153
B2: Ac-mISG15CTD[R153Agb]-OH (domain or fragment)
chain: B1 chain with F74X
modifications: N-terminal acetyl; Agb (2-amino-4-guanidino-butyric acid) at 153
B3: Ac-mISG15CTD-OH (wild type) (domain or fragment)
chain: B1 chain with F74R
modifications: N-terminal acetyl

Biological target: T1, His6-Hs.USP18 (16-372)
Test: SPR
A Kd of 1900 nM was found for B1 in this work. A Kd of 1200 nM was found for B2 in this work. A Kd of 4300 nM was found for B3 in this work.

Biological target: T2, His6-Mm.USP18 (46-368)
Test: SPR
A Kd of 1750 nM was found for B1 in this work. A Kd of 4500 nM was found for B2 in this work. A Kd of 2500 nM was found for B3 in this work.
